This assay addresses recombinant porcine astrovirus 4 (PoAstV4) capsid spike protein (porcine astrovirus 4). The assay can be described thus: SEC; Superdex 200 16/600 column in TBS pH 8.0 (10 mM Tris-HCl, 150 mM NaCl), compared with BioRad gel filtration standards. Background: SEC sorts molecules by how far they enter the pores of the column.

Usually stoichiometry N stands for the number of molecules, sites or subunits per partner or assembly.

Take “recombinant porcine astrovirus 4 (PoAstV4) capsid spike protein (domain or fragment)”: the stoichiometry N worked out at 2.

These data come from article PMC11512355.
